This is an account of results in the nanobody polyreactivity screen of Harvey et al. (2022).

The series is described as follows: yeast display, Sf9 membrane polyspecificity reagent, FACS + sequencing; frameworks hold sequencing errors. The essentials:
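Galactose-induced (36–48 hours) yeast carrying a synthetic nanobody display library were exposed to 10% biotinylated, detergent-solubilized Sf9 membrane reagent at 4 °C for 1 hour. FACS followed streptavidin microbead enrichment, using low and high (top ~1%) gates for expression (anti-HA) and reagent binding (streptavidin). Colony PCR, MiSeq 2 × 250 sequencing and CDR-length filtering followed. Labels for polyreactivity reflect the gate of origin.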
As for “QVQLVESGGGLVQAGGSLRLSCAASGFTIYGNAMGWSRQAPGKERELVAAITWRGGSTYYADSVKGRFTISRDNAKNTVYLQMNSLKPEDTAVYYCAARWLLGYYRYDYWGQGTQVTVSS”, the “polyreactivity (PSR sort gate)” value was “high polyreactivity”.

Turning to “QVQLVESGGGLVHAGGSLLLSCSASRSIFDLYAMGGYRQAPGKERELVADISIADSTNYADSVKGRFTISRDNAKNTVYLKMNSLKPEDTAVYYCKDDVWWYCYEYDYWGQGTEVTVSS”, the “polyreactivity (PSR sort gate)” value is reported as “low polyreactivity”.

Take “QVQLVESGGGLVQAGGSLRLSCAASGITFKFYAMGWYRQAPGKERELVAAIDSRGGSTYYADSVKGRFTISRDNAKNTVYLQMNSLKPEDTSVYYCNKVGRRKLDYWGQGTQVTVSS”: the “polyreactivity (PSR sort gate)” value is “high polyreactivity”.

As to “QVQLVESGGGLVQAGGSLRLSCAASGSIFRVYAMGWYRRAPGKERELVATITWNGGSTYYADSVKGRFTISRDNAKNTVYLQMNSLKPEDTAVYYCAKPTSWRRVLPMDYWGQGTQVTVSS”, the “polyreactivity (PSR sort gate)” value is given as “low polyreactivity”.

On to “QVQLVESGGGLVQAGGSLRLSCAASGSTLIGYAMGWYRQAPGKERELVAVINRSGGRTYYADSVKGRFTISRDNSKNTVYLQMNSLKPEDTAVYYCAARPTALSYDSWGQGTQVTVSS”, for which the “polyreactivity (PSR sort gate)” value is given as “high polyreactivity”.

As for “QVQLVESGGGLVQAGGSLRLSCAASGSIFFYYAMGWYRQAPGKERELVAAISGGGRTNYADSVKGRFTISRDNAKNTVYLQMNSLKPEDTAVYYCAADPVYWYSPMDYWGQGTQVTVSS”, the “polyreactivity (PSR sort gate)” value was “low polyreactivity”.

With “QVQLVESGGGLVQAGGSLRLSCAASGRTFLWNDMGWSRQAPGKERELVAAITGSDGTYADSVKGRFTISRDNAKNTVYLQMNSLKPEDTAVYYCAAETYWYFPWKYDYWGQGTQVTVSS”, the “polyreactivity (PSR sort gate)” value is on record as “low polyreactivity”.

Regarding “QVQLVESGGGLVQAGGSLRLSCAASGSTFDRYAMGWYRQAPGKERELVAAISWSGGSTYYADSVKGRFTISRDNAKNTVYLQMNSLKPEDTAVYYCARRYARITPVYAPLNYWGQGTQVTVSS”, the “polyreactivity (PSR sort gate)” value is reported as “high polyreactivity”.

On to “QVQLVESGGGLVQAGGSLRLSCAASGLTFIEYAMGWYRQAPGKERELVAAISSGGRTYYADSVKGRFTISRDNAKNTVYLQMNSLKPEDTAVYYCNARGYRRWYNYWGQGTQVTVSS”, for which the “polyreactivity (PSR sort gate)” value is recorded as “high polyreactivity”.

“QVQLVESGGGLVQAGCTLRISCAPSGSIFVYNDMGWSRQAPGKERELVASISNGDNTNYADSVKGRFTISRDNAKNTVYLQMNSLKPEDTAVYYCAADGYIGSVVAYGERDYWGQGTQVTVSS”: the “polyreactivity (PSR sort gate)” value was “low polyreactivity”.

On to “QVQLVESGAGLVQAGGSLRLSCADSGIIFSSNAMGWYRQAPGKERELVASITSAGNTYYADSVKGRFTISRDNAKNTVYLQMNSLKPEDTAVYYCYARYYYQYFHFSWSYPYGSWGQGTQVTVSS”, for which the “polyreactivity (PSR sort gate)” value was “high polyreactivity”.

Turning to “QVQLVESGGGLVQAGGSLRLSCAASGIIFGYYAMGWYRQAPGKERELVATINWDGGSTYYADSVKGRFTISRDNAKNTVYLQMNSLKPEDTAVYYCAAAKPVQYRIAQAHVGYWGQGTQVTVSS”, the “polyreactivity (PSR sort gate)” value is on record as “low polyreactivity”.

On to “QVQLVESGGGLVQAGGSLRLSCAASGFTFYKYAMGWYRPAPGKERELVAAITWSGGRTYYADSVKGRFTISRDNAKNTVYLKMNSLKPEDTAVYYCTARQKQGNFDYWGQGTQVTVSS”, for which the “polyreactivity (PSR sort gate)” value was “high polyreactivity”.

“QGQLVESGGGFVQAGGSLRLSCAASGSTFRYYTMGWYRQAPGKEREFVAAITSSGTSTYYADSVKGRFTISRDIAKNTVYLQMNSLKPEDTAVYYCNKVGIYGSRSRYDSWGQGTQVTVSS”: the “polyreactivity (PSR sort gate)” value is listed as “high polyreactivity”.

Regarding “QDQLVESGGGLVQAGGSLRLSCAASGSIFKINAMGWYRQAPGKERELVATITWSTGTTYYADSVKGRFTISRDNAKNTVYLQMYSLKPEDTAVYYCATDGDSTKLDYWGQGTQVTVSS”, the “polyreactivity (PSR sort gate)” value is “low polyreactivity”.

In the case of “QVQLVESGGGLVQAGGSLRLSCAASGRTFADYAMGWYRQAPGKERELVATIRKSTGTTYYADSVKGRFTISRDNAKNTVYLQMNSLKPEDTAVYYCAAARSRYSRWRVEYWGQGTQVTVSS”, the “polyreactivity (PSR sort gate)” value was “high polyreactivity”.

Take “QVQLVESGGGLVQAGGSRRLSCAASGSISGYNAMGWYRQAPGKERELVAVITTDGSTNYADSVKGRFTISRDNAKNTVYLQMNSLKPEDTAVYYCADYVVWLYGYEYWGQGTQVTVSS”: the “polyreactivity (PSR sort gate)” value is “low polyreactivity”.

On to “QVQLVESGGGLVQAGGSLRLSCAASGFTFYRNAMGWYRQAPGKERELVAGISKRGGSTYYADSVKGRFTISRDNAKNTVYLQMNSLKPEDTAVYYCAAYKQYRFYRYDYWGQGTQVTVSS”, for which the “polyreactivity (PSR sort gate)” value is reported as “high polyreactivity”.

In the case of “QVQLVESGGGLVQAGGSLRLICAASGRTFTGYTMGWYRQAPGKEREFVAAISSNGGRTYYADSVKGRFTISRDNAKNTVYLQMNSLKPEDTAVYYCAAPYTFWGQGTQVTVSS”, the “polyreactivity (PSR sort gate)” value is listed as “high polyreactivity”.

Take “HVQLVESGGGLVQAGGSLRLSCAASGFTFWDYTMGWYRQAPGKERELVAAISSSGGGTYYADSVKGRFTISRDNAKNTVYLQMNSLKPEDTAVDYCNAVRFLDYWYPDTYGDWGQGTQVTLSS”: the “polyreactivity (PSR sort gate)” value was “low polyreactivity”.

For “QVQLVESGGGLVQAGGSLRLSCAASGFTFGANVMGWYRQAPGKERELVAGITWSGDSTYYADSVKGRFTISRDNAKNTVYLQMNSLKPDDTAVYYCAADVYDGEYILDYDYWGQGTQVTVSS”, the “polyreactivity (PSR sort gate)” value was “low polyreactivity”.

On to “QVQLVESGRGLVQAGGSLRISCAASGFIFSKYAMGWYRQAPGKERELVAAISYSGGSTYYADSVKGRFTISRDNAKNTVYLQMNSLKPEDTAVYYCAAEGYGGYEHWGQGTQVTVSS”, for which the “polyreactivity (PSR sort gate)” value was “low polyreactivity”.

As for “QVQLVESGGGLVQAGGSLRLSCAASGSIFRRYAMGWYRQAPGKERELVAAISIGGGSTYYADSVKGRFTISRDNAKITVYLQMNSLKPEDTAVYYCNAYWKDDFEDGPGRRGMDYWGQGTQVTVSS”, the “polyreactivity (PSR sort gate)” value is recorded as “low polyreactivity”.

As to “QVQLVESGGGFVQAGGSLRLSCVPSGRTYEPYAMGWYRQAPGKERELVAAIRWSGDRTYYADSVKGRFTISRDFAKITVYLHMISLKPEDTAVYYCAADYRARRWGMDYWGQGTQVTVSS”, the “polyreactivity (PSR sort gate)” value is listed as “high polyreactivity”.

On to “QVQLVESGGGLVQAGGSLRLSCAASGRIFRGYAMGWYRQAPGKERELVADISSGASTNYADSVKGRFTISRDNAKKTVYFQMNSLKPEDTAVYYCAAQHSVLAYFEDDYWGQGTQVTVSS”, for which the “polyreactivity (PSR sort gate)” value is listed as “low polyreactivity”.

Take “QVQLVESGGGLVQAGGSLRLSCAASGSIFPVNAMGLYRQAPGKERELVAAINTSSGSTYYADSVKGRFTISRDNAKNTVYLQMNSLKPEDTAVYYCAAVYVASGYRYGYWGQGTQVTVSS”: the “polyreactivity (PSR sort gate)” value is “high polyreactivity”.

“QVQLVESGGGLVQAGGSLRISCAASGFIFFPYTRGCSRQAPGKLMELVAAITNGGSTSYADSVKGRFTISRDNAKKTGYLQMNSLKPEDTAVYSCAAVLGRNLLHTYYYWGQGTQVTGSS”: the “polyreactivity (PSR sort gate)” value is reported as “low polyreactivity”.

Turning to “QVQLVESGGGLVQAGGSLRLSCAASGRTFYDYAMGWYRQAPGKERELVASITGGASTNYADSVKGRFTISRDNAKNTVYLQMNSLKPEDTAVYYCAGRLYRGNVWDILLGGDYWGQGTQVTVSS”, the “polyreactivity (PSR sort gate)” value is “low polyreactivity”.

In the case of “QVQLEESGGGLVQAGGSLRLSCAASGRTLGGYAMGWYRQAPGKERELVASITARGGSTYYADSVKGRFTISRDNAKNTVYLQMNSLKPEDTAVYYCAARSGYYRGGFYYWGQGTQVTVSS”, the “polyreactivity (PSR sort gate)” value is given as “high polyreactivity”.

In the case of “QVQLVESGGGLVQAGGRLRVSCAASGSTFAWYAMGWYRQAPGKERELVAAISSGGRTYYADSVKGRFTISRDNAKNTVDLQMNSLKREDTAVFSCNADDWAYGMDYWGQGSQVTVSS”, the “polyreactivity (PSR sort gate)” value is “low polyreactivity”.

For “QVQLVESGGGLVQAGGSLRLSCAASGSIFGHNTMGWYRQAPVKERELVAAISSGSRTNSADTVKGRFTISRDNAKNTVYLQMKSLKPEDTAVDYCATKVYSSRYRGYGYWGQGPQVTVSS”, the “polyreactivity (PSR sort gate)” value is listed as “high polyreactivity”.

Consider “QVQLVESGGGLVQAGGSLRLSCAASGFTFYQYAMGWYRQAPGKERELVASISWSGGRTYYADSVKGRFTISRDNAKNTVYLQMNSLKPEDTAVYYCAARAYRIAGYDYWGQGTQVTVSS”, for which the “polyreactivity (PSR sort gate)” value is “high polyreactivity”.

Turning to “QVQLVESGGGLVQAGGSLRLSCAASGRIFVYNAMGWYLQAPGKERELVANIDYSGGSTYYADSVKGRFTISRDNAKNTVYLQMNSLKPEDTAVYYCAADGGSTAFDYWGHGTQVTVSS”, the “polyreactivity (PSR sort gate)” value is “low polyreactivity”.

In the case of “QVQLVESGGGLVQAGGTISLSCAASGRTYRNNAMGWYRQAPGKEMELVAAISRTGGRTYYADSVKGRFTISRDNAKNPVYLQMNSLKPEDSAVYYCNAAYLVREYDYWGQGTQVTVSS”, the “polyreactivity (PSR sort gate)” value is recorded as “high polyreactivity”.

On to “QVQLVESGGGLVQAGGSLRLSCAASGLIFPQYAMGWYRQAPGKERELVAAISLSGTSTNYADSVKGRFTISRDNAKNTVYLQMNSLKPEDTAVYYCLADQRITQSVELEYDSWGQGSQVTVSS”, for which the “polyreactivity (PSR sort gate)” value was “low polyreactivity”.

Consider “QVQLVESGGGLVQAGGSLRLSCAASGRTFTRYAMGWYRQAPGKERELVAAISRRGGRTFYADSVKGRFTISRDNAKNTVYLQMNSLKPEDTAVYYCAADYKSSPPLPEYDYWGQGTQVTVSS”, for which the “polyreactivity (PSR sort gate)” value was “high polyreactivity”.

“QVHLVESGGGLVQEGGSLRLSFAASGSSFIWYGMGWYRQAPGKARELVATITSSGSTNYADSVKGRFTISRDNAKNTVYLQMNSLKPEDTAVFYCAKRGPLRHYSWGQGTQVTVSS”: the “polyreactivity (PSR sort gate)” value is on record as “low polyreactivity”.

For the sequence “QVQLVESGGGLVQAGGSLRLSCAASGSIFSYNAMGWYRQAPGKEMELVAAISSGGSTYYADSVKGSFTISRDNAKNTVYLQMNSLKPEDTAVYYCNVYYLIWPYGHQVKRRDYWGQGTQVTVSS”, the “polyreactivity (PSR sort gate)” value is “low polyreactivity”.

Turning to “QVQLVESGGGVVQAGGSLRLSCAASGRIFRGYVMGWYRQAPRKERELVAAITWSGANTYYADSVKGRFTISRDNAMNTVYLQMNSLKPEDSAVYYCAATVSYWSTKEDDYWGLGTQVTVSS”, the “polyreactivity (PSR sort gate)” value is listed as “low polyreactivity”.

Regarding “QVQLVESGGGLVQAGGSLRLSCAASGSTFISNAMGWYRQAPGKERELVAAITRRGGGTYYADSVKGRFTISRDNAMNTVYLQMNSLKPEDTAVYYCAARPWWRGYRFDYWGQGTQVTVSS”, the “polyreactivity (PSR sort gate)” value is given as “high polyreactivity”.

Consider “QDQLVESGGGLVQAGGSLRLSCAASGFIFVVYAMGWYTQAPGKERELVAAITYSGGSTYYADSVKGRFTISRDNAKNTVDLQMNSLKPEDTAVYYCAAPEHDREFDYWGQGTQVTVSS”, for which the “polyreactivity (PSR sort gate)” value is “low polyreactivity”.
